Measurements: publication PMC12049551, “Labelizer: systematic selection of protein residues for covalent fluorophore labeling” (Nature Communications, 2025)
Read-outs that look alike come from different tables or passages of the source.

B1: PBP (S3C-I76G-P86C): double-cysteine variant of E. coli phosphate binding protein PBP with additional I76G mutation (protein, UniProt P0AG82 26-346, looked up, variant S3C I76G P86C)
Phosphate-binding protein PstS: EACLTGAGATFPAPVYAKWADTYQKETGNKVNYQGIGSSGGVKQIIANTVDFGASDAPLSDEKLAQEGLFQFPTVGGGVVLAVNICGLKSGELVLDGKTLGDIYLGKIKKWDDEAIAKLNPGLKLPSQNIAVVRRADGSGTSFVFTSYLAKVNEEWKNNVGTGSTVKWPIGLGGKGNDGIAAFVQRLPGAIGYVEYAYAKQNNLAYTKLISADGKPVSPTEENFANAAKGADWSKTFAQDLTNQKGEDAWPITSTTFILIHKDQKKPEQGTEVLKFFDWAYKTGAKQANDLDYASLPDSVVEQVRAAWKTNIKDSSGKPLY
B2: PBP (I76G): cysteine-less PBP variant with only the I76G mutation (protein, UniProt P0AG82 26-346, looked up, variant I76G)
Phosphate-binding protein PstS: EASLTGAGATFPAPVYAKWADTYQKETGNKVNYQGIGSSGGVKQIIANTVDFGASDAPLSDEKLAQEGLFQFPTVGGGVVLAVNIPGLKSGELVLDGKTLGDIYLGKIKKWDDEAIAKLNPGLKLPSQNIAVVRRADGSGTSFVFTSYLAKVNEEWKNNVGTGSTVKWPIGLGGKGNDGIAAFVQRLPGAIGYVEYAYAKQNNLAYTKLISADGKPVSPTEENFANAAKGADWSKTFAQDLTNQKGEDAWPITSTTFILIHKDQKKPEQGTEVLKFFDWAYKTGAKQANDLDYASLPDSVVEQVRAAWKTNIKDSSGKPLY
B3: wild-type: wild-type E. coli phosphate binding protein PBP (phoS gene) (protein, UniProt P0AG82 26-346, looked up)
Phosphate-binding protein PstS: EASLTGAGATFPAPVYAKWADTYQKETGNKVNYQGIGSSGGVKQIIANTVDFGASDAPLSDEKLAQEGLFQFPTVIGGVVLAVNIPGLKSGELVLDGKTLGDIYLGKIKKWDDEAIAKLNPGLKLPSQNIAVVRRADGSGTSFVFTSYLAKVNEEWKNNVGTGSTVKWPIGLGGKGNDGIAAFVQRLPGAIGYVEYAYAKQNNLAYTKLISADGKPVSPTEENFANAAKGADWSKTFAQDLTNQKGEDAWPITSTTFILIHKDQKKPEQGTEVLKFFDWAYKTGAKQANDLDYASLPDSVVEQVRAAWKTNIKDSSGKPLY

Key:
[1] = Isothermal titration calorimetry (ITC) of PBP variants with inorganic phosphate; type: binding, E. coli; settings: 25 °C, unlabeled protein, mean ± SD from n = 2 protein preparations
Method: Protein from a diluted solution was concentrated to ~ 30 µM using a Viva Spin 6 concentrator with a 10 kDa MWCO. The filtrate was used to prepare the phosphate solution at 450 µM. The reaction cell was filled with the protein solution and titrated in 19 steps of 2 µl each of phosphate solution in 160 s intervals. A baseline control was obtained from measurements made with protein-free filtrate in the reaction cell, and this baseline was subtracted from the experimental thermograms. Data were fitted to a single binding site model using the Setup MicroCal PEAQ-ITC Analysis Software provided by the manufacturer.

[2] = parameters: method as in PMID 26199994; settings: cited from earlier work

Molecule	Kd [1]	reduction of affinity for inorganic phosphate compared to wild-type ([2]; I76G mutation)	Kd ([2]; wild-type affinity for inorganic phosphate)
B1	10 ± 5 µM		
B2	19 ± 6 µM	~200 fold	
B3			0.07 µM
